Measurements from patent US7326418B2, “Identification of novel factors that block programmed cell death or apoptosis by targeting JNK” (University of Chicago, priority 2001, dated 2008).

Target: T1, GST-MKK7 (Homo sapiens, UniProt O14733, Q133P/Q94H)
T1 construct: made in house; host or cells: E. coli BL21
T1 sequence (O14733 1-401 Q94H/Q133P limits assumed): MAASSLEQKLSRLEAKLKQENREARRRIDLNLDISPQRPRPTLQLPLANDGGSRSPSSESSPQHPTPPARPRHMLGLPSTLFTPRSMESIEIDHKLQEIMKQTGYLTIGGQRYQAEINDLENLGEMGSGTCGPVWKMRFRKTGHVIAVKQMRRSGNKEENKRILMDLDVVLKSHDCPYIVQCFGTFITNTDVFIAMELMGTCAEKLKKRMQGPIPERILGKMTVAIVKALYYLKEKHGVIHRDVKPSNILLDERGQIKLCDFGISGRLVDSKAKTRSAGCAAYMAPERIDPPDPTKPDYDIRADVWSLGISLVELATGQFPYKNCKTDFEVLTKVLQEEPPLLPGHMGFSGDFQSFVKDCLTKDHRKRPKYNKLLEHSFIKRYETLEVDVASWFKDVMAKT
Experiment: In vitro pull-down with purified proteins: His6/T7-tagged proteins binding to GST-MKK7
Settings: JIP1 used under non-saturating conditions, read-out: half maximum binding (HMB) value for binding to GST-MKK7
From the text: Protein levels are shown (bottom). b, g, Coomassie brilliant blue staining (CS) showing purity of the proteins used in (c) and (d, e), respectively. c, In vitro pull-down assays with purified proteins showing direct interaction between His6/T7-Gadd45β (His6disclosed as SEQ ID NO: 46) and GST-MKK7. Precipitated GST proteins and bound His6/T7-tagged proteins(His6 disclosed as SEQ ID NO: 46) were visualized by CS and Western blotting (WB) with anti-T7 antibodies, respectively. Inputs of His6/T7-tagged proteins (His6 disclosed as SEQ ID NO: 46) are indicated. The fraction of His6/T7-Gadd45β (His6 disclosed as SEQ ID NO: 46) and His6/T7-JIP1 (His6 disclosed as SEQ ID NO: 46) binding to GST-MKK7 (expressed as arbitrary units [a.u.]; left) was calculated relatively to a standard curve generated with known protein concentrations^19. d, e, Kinase assays showing specific inhibition of active MKK7 by purified GST-Gadd45β and His6-Gadd45β (His6 disclosed as SEQ ID NO: 46), in vitro. […]
Interaction of endogenous Gadd45β and MKK7 was detected readily (FIG. 28a). […]
GST precipitations with in vitro-translated proteins or purified proteins (FIG. 26-30), and kinase assays were performed. […] MKK7 phosphorylation was monitored by performing immunoprecipitations with anti-P-MKK7 antibodies (developed at Cell Signaling) followed by Western blots with anti-total MKK7 antibodies. […]

Kd: ~390 nM
B1: Gadd45β: purified recombinant His6-tagged Gadd45β protein; also used generically for the recombinant Gadd45β proteins (protein, UniProt O75293 1-160, looked up)
Growth arrest and DNA …: MTLEELVACDNAAQKMQTVTAAVEELLVAAQRQDRLTVGVYESAKLMNVDPDSVVLCLLAIDEEEEDDIALQIHFTLIQSFCCDNDINIVRVSGMQRLAQLLGEPAETQGTTEARDLHCLLVTNPHTDAWKSHGLVEVASYCEESRGNNQWVPYISLQER
modifications: His6 tag
notes: purified recombinant His6-tagged Gadd45β protein; also used generically for the recombinant Gadd45β proteins
